The values that follow come from patent publication US20240109974A1 (SHANDONG SIMCERE BIOPHARMACEUTICAL, published 2024).

Experiment [1] addresses T1, human TNFR2 on the surface of CHO-TNFR2 cells (human, UniProt P20333 23-461).
T1 construct: whole, on cells
T1 sequence (looked up): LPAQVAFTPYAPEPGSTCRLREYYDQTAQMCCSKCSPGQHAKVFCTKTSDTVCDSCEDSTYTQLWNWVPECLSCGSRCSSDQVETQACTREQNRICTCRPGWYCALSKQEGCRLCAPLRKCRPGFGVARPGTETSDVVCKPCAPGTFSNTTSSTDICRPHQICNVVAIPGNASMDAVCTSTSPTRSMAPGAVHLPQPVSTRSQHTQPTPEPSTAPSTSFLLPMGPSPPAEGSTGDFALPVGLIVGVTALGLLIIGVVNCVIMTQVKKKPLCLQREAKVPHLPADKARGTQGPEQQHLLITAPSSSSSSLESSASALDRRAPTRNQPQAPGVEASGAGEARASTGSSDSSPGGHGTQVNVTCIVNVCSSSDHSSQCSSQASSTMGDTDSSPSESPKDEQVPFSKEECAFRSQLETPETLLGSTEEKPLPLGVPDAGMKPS
The experiment can be described thus: competition flow cytometry on CHO-TNFR2 cells, competitor TNFα-biotin; area under the MFI curve. The arrangement: unit not given beside the values. The method, then: (§1) CHO stable cells highly expressing human TNFR2 were used for the experiment (the same as CHO-TNFR2 in Example 4). The CHO-TNFR2 cells were digested, washed twice with DPBS, then stained with Live/Dead (L/D) (20 minutes at room temperature), and plated at a density of 1×10⁵ cells/50 μl/well. A test anti-TNFR2 antibody was diluted to 6 μg/ml with a staining buffer as the starting concentration: the antibody was subjected to 3.33-fold gradient dilution, with a total of 7 concentration points. The diluted antibody was added to the plated cells at 50 μl/well, and the mixture was mixed well by gentle pipetting, and incubated at 4° C. for 30 minutes. Then the diluted 100 ng/ml of human TNFα-biotin was added at 100 μl/well, and the mixture was mixed well by gentle pipetting, and then incubated at 4° C. for 30 minutes. The mixture was washed twice with a staining buffer, and then 0.12 μg/ml PE-streptavidin (BioLegend, Cat #405204) was added at 100 μl/well; the resulting mixture was incubated at 4° C. for 30 minutes. The mixture was washed twice with a staining buffer, and then 150 μl of staining buffer was added to resuspend the cells; signals were detected by a flow cytometer (Thermo Attune NxT). The inhibitory curve of an antibody was drawn with antibody concentration as the abscissa and corresponding MFI value as the ordinate, and fitted with four parameters (GraphPad Prism9) to calculate the IC50 value. The smaller the IC50 value, the stronger the ability of an antibody to inhibit the binding of human TNFα to human TNFR2. The blocking effect of a humanized antibody was normalized to its corresponding human-murine chimeric WT antibody. The higher the percentage value, the better the inhibitory effect of the humanized antibody.
For orientation: A flow cytometer gives signals particle by particle.

The target in experiment [2] is T1, human TNFR2 on the surface of CHO-TNFR2 …. The experiment can be described thus: flow cytometry on CHO-TNFR2 cells. How it is done: The transfected full-length plasmid of human TNFR2 was purchased from Sino Biological (Cat #HG10417-UT, NCBI Ref Seq: NM_001066.2). The experiment was conducted at a cell density within 80%. The cell medium was discarded; the cells were rinsed with PBS, and digested with 1 ml trypsin for 2 minutes; the digestion was stopped with a Ham's F12 complete medium containing 10% FBS, and then a cell suspension was made. The cell suspension was counted, and then an appropriate amount of cell suspension was centrifuged at 350×g; the supernatant was discarded; a corresponding volume of blocking solution (10% FBS+PBS) at a density of 1×10⁷ cells/ml was added to resuspend the cells, and the mixture was incubated at 4° C. for 30 minutes. After the incubation, the mixture was centrifuged at 350×g to remove the supernatant, and the cells were resuspended in a staining buffer (2% FBS+PBS) to a density of 2×10⁶ cells/ml, and spread onto a 96-well plate, with 50 μl of cell suspension added to each well for later use. The antibody was diluted with PBS for 10-fold gradient dilution from the highest concentration of 20 μg/m (twice the concentration); the diluted antibody was added to the well containing 50 μl of cell suspension, and placed on a microplate shaker for shaking at 500 rpm for 1 minute, so that the antibody was fully mixed with the cells; the mixture was incubated at 4° C. for 1 h. After the incubation, the cells were washed twice with the staining buffer, with 100 μl per well, and centrifuged at 350-g for 5 minutes, and the supernatant was discarded. The PE goat anti-Human IgG Fc antibody (ebioscience, Cat #12-4998-82) was diluted 250-fold with the staining buffer, with a volume of 100 μl per well added to the washed cell wells; the mixture was mixed evenly, and stained at 4° C. for 30 minutes. After the staining, similarly, the cells were washed twice with the staining buffer; finally, the cells were resuspended in 200 μl of staining buffer; signals were detected by a flow cytometer (Thermo Attune NxT). The stronger the signal, the stronger the binding ability of an antibody to TNFR2. The binding curve of an antibody was drawn with antibody concentration as the abscissa and corresponding mean fluorescence intensity (MFI) fold as the ordinate, and fitted with four parameters (GraphPad Prism9) to calculate the EC50 value.

Experiment [3] has the same target. The experiment can be described thus: competition flow cytometry on CHO-TNFR2 cells, competitor human TNFα-biotin. How it is done: as §1

B1: 219-Hu5 (antibody, V domains shown)
VH: QVQLVQSGAEVKKPGSSVKVSCKASGYSFTNYWMNWVRQAPGQGLEWMGMIHPSDTETRLNQNFKDRVTITVDKSTSTAYMELSSLRSEDTAVYYCARGEGLGAARSVSMDYWGQGTLVTVSS
VL: DIQMTQSPSSLSASVGDRVTITCRASQDISNYLNWYQQKPDGTVKLLIYYTAILHSGVPSRFSGSGSGTDYSLTISSLQPEDFATYFCQQGNTLPWTFGQGTKVEIK
notes: also called VH7 + VL5
The EC50 is the concentration that produces a half-maximal response. By IC50 is commonly meant the concentration that inhibits the measured activity by half. In experiment [1], B1 registered an AUC of 7260. In experiment [2], the EC50 came out at 0.018 ng/mL. Besides, the IC50 in experiment [3] worked out at 39 ng/mL.

B2: 224-Hu1 (antibody, V domains shown)
VH: QVQLVQSGAEVKKPGASVKVSCKASGFNNKDIYMHWVRQAPGQGLEWIGRIDPATGNTKHDPKFQDRVTMTSDTSTNTVYMELSSLRSEDTAVYYCARSPYGDFGAMDYWGQGTLVTVSS
VL: DIQMTQSPSSLSASVGDRVTITCTASSSVSSNYLHWYQQKPGKAPKLWIYSTSNLPSGVPSRFSGSGSGTDFTLTISSLQPEDFATYYCHQYHRSPWTFGQGTKVEIK
notes: Humanized form of #224; also called VH8 + VL6
As to B2, the AUC in experiment [1] came out at 20300. This molecule also showed an EC50 in experiment [2] of 0.04 ng/mL. The IC50 in experiment [3] turned out to be 42 ng/mL.

B3: 224-Hu7 (antibody, V domains shown)
VH: QVQLVQSGSELKKPGASVKVSCKASGFNNKDIYMHWVRQAPGQGLEWMGRIDPATGNTKHDPKFQDKAVLSSDTSVSTAYLQISSLKAEDTAVYYCARSPYGDFGAMDYWGQGTLVTVSS
VL: DIQMTQSPSSLSASVGDRVTITCTASSSVSSNYLHWYQQKPGKAPKLLIYSTSNLPSGVPSRFSGSGSGTDFTLTISSLQPEDFATYYCHQYHRSPWTFGQGTKVEIK
notes: Humanized form of #224; also called VH9 + VL10
In experiment [1], B3 gave an AUC of 19600. In addition, in experiment [2], the midpoint of the response, the EC50, lay at 0.03 ng/mL. In experiment [3], this molecule yielded an IC50 of 65 ng/mL.

B4: 224-Hu4 (antibody, V domains shown)
VH: QVQLVQSGSELKKPGASVKVSCKASGFNNKDIYMHWVRQAPGQGLEWMGRIDPATGNTKHDPKFQDKAVLSSDTSVSTAYLQISSLKAEDTAVYYCARSPYGDFGAMDYWGQGTLVTVSS
VL: DIQMTQSPSSLSASVGDRVTITCTASSSVSSNYLHWYQQKPGKAPKLWIYSTSNLPSGVPSRFSGSGSGTDFTLTISSLQPEDFATYYCHQYHRSPWTFGQGTKVEIK
notes: Humanized form of #224; also called VH9 + VL6
B4: the AUC in experiment [1] turned out to be 14200. The same molecule displayed an EC50 in experiment [2] of 0.03 ng/mL. The molecule further came in with an IC50 in experiment [3] of 58 ng/mL.

B5: 224-Hu5 (antibody, V domains shown)
VH: QVQLVQSGSELKKPGASVKVSCKASGFNNKDIYMHWVRQAPGQGLEWMGRIDPATGNTKHDPKFQDKAVLSSDTSVSTAYLQISSLKAEDTAVYYCARSPYGDFGAMDYWGQGTLVTVSS
VL: DIQMTQSPSSLSASVGDRVTITCTASSSVSSNYLHWYQQKPGKAPKLLIYSTSNLPSGVPSRFSGSGSGTDYSLTISSLQPEDFATYYCHQYHRSPWTFGQGTKVEIK
notes: Humanized form of #224; also called VH9 + VL9
The molecule B5 registered an AUC in experiment [1] of 14600. This molecule had an EC50 in experiment [2] of 0.04 ng/mL. For the same molecule, in experiment [3], the IC50 came out at 62 ng/mL.

B6: 224-Hu2 (antibody, V domains shown)
VH: QVQLVQSGSELKKPGASVKVSCKASGFNNKDIYMHWVRQAPGQGLEWMGRIDPATGNTKHDPKFQDKAVLSSDTSVSTAYLQISSLKAEDTAVYYCARSPYGDFGAMDYWGQGTLVTVSS
VL: DIQMTQSPSSLSASVGDRVTITCTASSSVSSNYLHWYQQKPGSSPKLWIYSTSNLPSGVPSRFSGSGSGTDFTLTISSLQPEDFATYYCHQYHRSPWTFGQGTKVEIK
notes: Humanized form of #224; also called VH9 + VL7
With B6, in experiment [1], the AUC is 19200. For the same molecule, the response in experiment [2] was half-maximal at 0.03 ng/mL (EC50). The molecule further showed an IC50 in experiment [3] of 36 ng/mL.

B7: 224-Hu6 (antibody, V domains shown)
VH: QVQLVQSGAEVKKPGASVKVSCKASGFNNKDIYMHWVRQAPGQGLEWIGRIDPATGNTKHDPKFQDRVTMTSDTSTNTVYMELSSLRSEDTAVYYCARSPYGDFGAMDYWGQGTLVTVSS
VL: DIQMTQSPSSLSASVGDRVTITCTASSSVSSNYLHWYQQKPGSSPKLWIYSTSNLPSGVPSRFSGSGSGTDFTLTISSLQPEDFATYYCHQYHRSPWTFGQGTKVEIK
notes: Humanized form of #224; also called VH8 + VL7
In the case of B7, in experiment [1], the AUC is 13900. A half-maximal effect in experiment [2] (EC50) was put at 0.03 ng/mL. Also, the IC50 in experiment [3] was 61 ng/mL.

B8: 224-Hu3 (antibody, V domains shown)
VH: QVQLVQSGSELKKPGASVKVSCKASGFNNKDIYMHWVRQAPGQGLEWMGRIDPATGNTKHDPKFQDKAVLSSDTSVSTAYLQISSLKAEDTAVYYCARSPYGDFGAMDYWGQGTLVTVSS
VL: DIQMTQSPSSLSASVGDRVTITCTASSSVSSNYLHWYQQKPGKAPKLLIYSTSNLPSGVPSRFSGSGSGTDFTLTISSLQAEDAATYYCHQYHRSPWTFGQGTKVEIK
notes: Humanized form of #224; also called VH9 + VL8
In the case of B8, the AUC in experiment [1] was 18700. A half-maximal response in experiment [2] (EC50) required 0.03 ng/mL. The same molecule had an IC50 in experiment [3] of 44 ng/mL.
